Results as given in the supplement of paper PMC10567573.

B1: MMP1 (parent)
chain: FHGTRQYKFDPKTKRILTLQKANS
B2: SNX8 (parent)
chain: LHQETQLIHVYLPLTSHILRAFVN

Variants of: B1
Assay: protein stability index of a GFP-peptide fusion (GPS, HEK-293T) (PSI 1-6); higher = more stable
Settings: c terminus: a fixed tail appended
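Further: lentivirally expressed fusions sorted by FACS into six bins by GFP to DsRed ratio, PSI derived from sequencing read proportions per bin multiplied by bin number.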

Variant | protein stability index
KHGTRQYKFDPKTKRILTLQKANS | 3.33
GHGTRQYKFDPKTKRILTLQKANS | 3.44
LHGTRQYKFDPKTKRILTLQKANS | 3.05
SHGTRQYKFDPKTKRILTLQKANS | 3.43
HHGTRQYKFDPKTKRILTLQKANS | 3.12
FHGTRWYKFDPKTKRILTLQKANS | 2.63
FHGTRFYKFDPKTKRILTLQKANS | 3.64
FHGTRDYKFDPKTKRILTLQKANS | 1.87
FHGTRMYKFDPKTKRILTLQKANS | 1.82
FHGTRIYKFDPKTKRILTLQKANS | 2.39
FHGTRYYKFDPKTKRILTLQKANS | 2.04
FHGTRQYKFDPKTKYILTLQKANS | 1.57
FHGTRQYKFDPKTKNILTLQKANS | 1.73
FHGTRQYKFDPKTKEILTLQKANS | 1.83
FHGTRQYKFDPKTKFILTLQKANS | 1.3
FHGTRQYKFDPKTKDILTLQKANS | 1.86
FHGTRQYKFDPKTKAILTLQKANS | 2.51
FHGTRQYKFDPKTKVILTLQKANS | 1.77
FHLTRQYKFDPKTKRILTLQKANS | 1.63
FHETRQYKFDPKTKRILTLQKANS | 2.61
FHVTRQYKFDPKTKRILTLQKANS | 2.3

Variant | protein stability index
FHHTRQYKFDPKTKRILTLQKANS | 2.23
FHSTRQYKFDPKTKRILTLQKANS | 1.54
FHKTRQYKFDPKTKRILTLQKANS | 1.93
FHRTRQYKFDPKTKRILTLQKANS | 1.6
FHGTRQYKFDPKTKRINTLQKANS | 1.6
FHGTRQYKFDPKTKRIFTLQKANS | 1.56
FHGTRQYKFDPKTKRIETLQKANS | 1.59
FHGTRQYKFDPKTKRIVTLQKANS | 1.73
FHGTRQYKFDPKTKRIMTLQKANS | 1.53
FHGTRQYKFDPKTKRICTLQKANS | 2.02
FHGTRQYKFDPKTKRIQTLQKANS | 2.19
FHGTRQYKFDPKTKRIYTLQKANS | 1.95
FHGTRQYKFDPKTKRISTLQKANS | 1.8
FHGTRQYKFDPKTKRITTLQKANS | 2.2
FHGTRQYKFDPKTKRILTLQKRNS | 1.65
FHGTRQYKFDPKTKRILTLQKHNS | 2.49
FHGTRQYKFDPKTKRILTLQKLNS | 1.52
FHGTRQYKFDPKTKRILTLQKNNS | 2.09
FHGTRQYKFDPKTKRILTLQKFNS | 1.77
FHGTRQYKFDPKTKRILTLQKANR | 1.3
FHGTRQYKFDPKTKRILTLQKANC | 2.01

Variant | protein stability index
FHGTRQYKFDPKTKRILTLQKAND | 1.77
FHGTRQYKFDPKTKRILTLQKANP | 2.08
FHGTRQYKFDPKTKRILTLQKANK | 1.84
FHGTRQYKFDPKTKRILTLQKANV | 1.79
FHGTRQYKFDRKTKRILTLQKANS | 1.88
FHGTRQYKFDHKTKRILTLQKANS | 1.98
FHGTRQYKFDSKTKRILTLQKANS | 1.78
FHGTRQYKFDQKTKRILTLQKANS | 2.29
FHGTRQYKFDPKTPRILTLQKANS | 2.1
FHGTRQYKFDPKTARILTLQKANS | 2.68
FHGTRQYKFDPKTSRILTLQKANS | 1.69
FHGTRQYKFDPKTNRILTLQKANS | 2.14
FHGTRQYKFDPKTMRILTLQKANS | 2.16
FHGTRQYKFDPKTLRILTLQKANS | 1.99
FHGTRQYKFDPKTFRILTLQKANS | 1.98
FHGTRQYKFDPKTVRILTLQKANS | 2.53
FHGTRQYKFDPKSKRILTLQKANS | 1.99
FHGTRQYKFDPKDKRILTLQKANS | 2.33
FHGTRQYKFDPKQKRILTLQKANS | 2.37
FHGTRQYKFDPKFKRILTLQKANS | 1.68
FHGTRQYKFDPKNKRILTLQKANS | 1.96

Variant | protein stability index
FHGTRQYKFDPKRKRILTLQKANS | 1.85
FHGTRQYKFDPKGKRILTLQKANS | 1.62
FHGTRQYKFDPKIKRILTLQKANS | 1.8
FHGTRQYKFDPKTKRILTLQKASS | 1.93
FHGTRQYKFDPKTKRILTLQKAFS | 1.25
FHGTRQYKFDPKTKRILTLQKATS | 1.29
FHGTRQYKFDPKTKRILTLQKAYS | 2.1
FHGTRQYKFDPKTKRILTLQKAQS | 1.85
FHGTRQYKFDPKTKRILTLQKAIS | 2.87
FHGTRQYKFDPKTKRILTLQKAWS | 1.51
FHGTRQYKFDPKTKRILTLQKACS | 2.32
FHGTRQYKFTPKTKRILTLQKANS | 2.03
FHGTRQYKFWPKTKRILTLQKANS | 1.77
FHGTRQYKFCPKTKRILTLQKANS | 1.49
FHGTRQYKFYPKTKRILTLQKANS | 2.01
FHGTRQYKFKPKTKRILTLQKANS | 1.83
FHGTRQYKFDPKTKRILKLQKANS | 1.34
FHGTRQYKFDPKTKRILELQKANS | 2.07
FHGTRQYKFDPKTKRILYLQKANS | 1.51
FHGTRQYKFDPKTKRILRLQKANS | 1.68

Variants of: B2
Assay: as above
Settings: c terminus: a fixed tail appended

Variant | protein stability index
QHQETQLIHVYLPLTSHILRAFVN | 2.18
NHQETQLIHVYLPLTSHILRAFVN | 2.75
KHQETQLIHVYLPLTSHILRAFVN | 3.1
PHQETQLIHVYLPLTSHILRAFVN | 3.01
EHQETQLIHVYLPLTSHILRAFVN | 3.18
AHQETQLIHVYLPLTSHILRAFVN | 2.75
HHQETQLIHVYLPLTSHILRAFVN | 1.85
DHQETQLIHVYLPLTSHILRAFVN | 3.07
RHQETQLIHVYLPLTSHILRAFVN | 2.06
FHQETQLIHVYLPLTSHILRAFVN | 3.82
IHQETQLIHVYLPLTSHILRAFVN | 2.88
